Data published in US20110256144A1 (TORAY INDUSTRIES, published 2011).

T1: human CAPRIN-1 protein on human cancer cells (human, UniProt Q14444 2-709)
T1 sequence (looked up): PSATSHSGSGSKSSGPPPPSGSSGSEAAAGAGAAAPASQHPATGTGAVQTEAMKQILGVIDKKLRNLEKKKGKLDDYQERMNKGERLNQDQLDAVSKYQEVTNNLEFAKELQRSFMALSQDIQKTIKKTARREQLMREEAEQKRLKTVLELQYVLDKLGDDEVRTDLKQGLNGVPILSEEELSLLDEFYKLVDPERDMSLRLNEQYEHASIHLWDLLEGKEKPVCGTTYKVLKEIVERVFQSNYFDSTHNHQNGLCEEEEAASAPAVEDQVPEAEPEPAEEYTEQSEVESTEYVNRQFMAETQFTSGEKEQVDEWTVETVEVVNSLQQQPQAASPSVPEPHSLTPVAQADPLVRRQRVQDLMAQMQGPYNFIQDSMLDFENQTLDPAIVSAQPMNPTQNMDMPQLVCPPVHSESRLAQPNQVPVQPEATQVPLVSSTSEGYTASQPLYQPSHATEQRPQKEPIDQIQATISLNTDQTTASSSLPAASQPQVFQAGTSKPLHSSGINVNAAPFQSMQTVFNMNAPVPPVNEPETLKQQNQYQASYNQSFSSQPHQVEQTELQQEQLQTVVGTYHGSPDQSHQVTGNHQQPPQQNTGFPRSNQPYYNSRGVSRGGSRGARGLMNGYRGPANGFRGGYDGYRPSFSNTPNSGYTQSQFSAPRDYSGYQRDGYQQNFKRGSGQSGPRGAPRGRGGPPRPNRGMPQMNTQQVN


Key:
[1] = molecular target: T1, human CAPRIN-1 protein on human cancer …; test: cell-based or functional assay
[2] = molecular target: T1, human CAPRIN-1 protein on human cancer …; test: flow cytometry, hybridoma supernatant on human breast cancer, glioma, kidney, gastric, colon, lung cancer and leukemia cell lines; increase in MFI over control
Protocol: Each cell line (10⁶ cells) was centrifuged in a 1.5-ml microcentrifugal tube. The hybridoma supernatants (100 μl each) containing monoclonal antibodies #1 to #10 against CAPRIN-1 prepared in Example 4 reacting to cancer cell surfaces were separately added thereto and then left to stand on ice for 1 hour. After washing with PBS, each resultant was suspended in an FITC-labeled goat anti-mouse IgG antibody (Invitrogen Corporation) diluted 500-fold with PBS containing 0.1% FBS and then left to stand on ice for 1 hour. After washing with PBS, fluorescence intensity was measured using FACSCalibur (Becton, Dickinson and Company). Meanwhile, a procedure similar to the above was performed using, as a control, the control antibody prepared in (5) above instead of the hybridoma supernatants containing monoclonal antibodies #1 to […] against CAPRIN-1, so that a control was prepared. […] Based on the above, it was confirmed that the CAPRIN-1 protein was expressed on the cell surfaces of the above human cancer cell lines. In addition, the rate of increase in fluorescence intensity is represented by the rate of increase in mean fluorescence intensity (MFI value) in cells. It was calculated by the following equation.

Binder | ADCC activity (chromium 51 release, mouse lymphocytes), MDA-MB-157 cells [1] | CDC activity (chromium 51 release, rabbit serum), MDA-MB-231V cells [1] | increase in fluorescence intensity over control [2]
monoclonal antibody #3 against CAPRIN-1 (antibody, V domains shown, Mouse monoclonal antibody from a hybridoma; also called the #3 monoclonal antibody to CAPRIN-1; antibody (c)) VH: EVQLHQFGAELVKPGASVKISCKASGYTFTDYNMDWVKQSHGKSLEWIGDINPNYDSTSYNQKFKGKATLTVDKSSSTAYMELRSLTSEDTAVYYCARSRSYDYEGFAYWGQGTLVTVSA VL: DIQLTQSPASLSASVGETVTITCRASGNIHNYLAWYQQKQGKSPQLLVYNAKTLADGVPSRFSGSGSGTQYSLKINSLQPEDFGSYYCQHFWSTLTFGGGTKLEIK | ≥ 20% | ≥ 30% | ≥ 30%
monoclonal antibody #4 against CAPRIN-1 (antibody, V domains shown, Mouse monoclonal antibody from a hybridoma; also called the #4 monoclonal antibody to CAPRIN-1; antibody (d)) VH: EVQLHQFGAELVKPGASVKISCKASGYTFTDYNMDWVKQSHGKSLEWIGDINPNYDSTSYNQKFKGKATLTVDKSSSTAYMELRSLTSEDTAVYYCARSRSYDYEGFAYWGQGTLVTVSA VL: SGDRVSLSCRASQSISNYLHWYQQKSHESPRLLIKYASQSISGIPSRFSGSGSGTDFTLSINSVETEDFGMYFCQQSNSWPYTFGAGTKLEIKQ | ≥ 20% | ≥ 30% | ≥ 30%

Further lines, results first:

ADCC activity (chromium 51 release, mouse lymphocytes), MDA-MB-157 cells [1] | CDC activity (chromium 51 release, rabbit serum), MDA-MB-231V cells [1] | increase in fluorescence intensity over control [2] | Binder
≥ 20% | ≥ 30% | ≥ 30% | monoclonal antibody #1 against CAPRIN-1 (antibody, V domains shown, also called the #1 monoclonal antibody to CAPRIN-1; antibody (a)) VH: EVQLHQFGAELVKPGASVKISCKASGYTFTDYNMDWVKQSHGKSLEWIGDINPNYDSTSYNQKFKGKATLTVDKSSSTAYMELRSLTSEDTAVYYCARSRSYDYEGFAYWGQGTLVTVSA VL: DIQMTQSPASLSASVGETVTITCRASGNIHNYLAWYQQKQGKSPQLLVYNAKTLADGVPSRFSGSGSGTQYSLKINSLQPEDFGSYYCQHFWSTLTFGAGTKLELKR
≥ 20% | ≥ 30% | ≥ 30% | monoclonal antibody #7 against CAPRIN-1 (antibody, V domains shown, Mouse monoclonal antibody from a hybridoma; also called the #7 monoclonal antibody to CAPRIN-1; antibody (g)) VH: LQESGAELARPGASVKLSCKASGYTFTSYWMQWVKQRPGQGLEWIGAIYPGDGDTRYTQKFKGKATLTADKSSSTAYMQLSSLASEDSAVYYCARGEYGNYFAYWGQGTTVTVSS VL: TSDASLGERVTITCKASQDINSYLSWFQQKPGKSPKTLIYRANRLVDGVPSRFSGSGSGQDYSLTISSLEYEDMGIYYCLQYDEFPLTFGGGTKLEIKQ
